Data published in publication PMC7001585 (Proteins, 2017).

Target: the molecule itself
Assay: crystal structure

B1: CepR2 ligand binding domain (CepR2-LBD, 1-170) (domain or fragment)
chain: SNAMDLTILHDCFDALQRAPTAEAAFPPIAAAAAALGFRYCVYGLRRTLPLARPDMQIVGNHPREWEHRYVKFGYVTIDPIIKRVASQPRPVVWNAFDEPGDTAFWHDAACFGMRYGWSHGGYDRAGNLGVLTLVRDTTPLDADEISRLRAPCASLSHAAHAYLMPRLADPIA
modifications: selenomethionine (SeMet-substituted protein; SeMet53 named)
  stoichiometry N: 2
